These are literature values, as cited in article PMC4621241.

pKd: −log10 of the molar value.

The target in the data set is MetQ (Escherichia coli) (UniProt P28635).
MetQ (Escherichia coli), sequence (P28635 23-271): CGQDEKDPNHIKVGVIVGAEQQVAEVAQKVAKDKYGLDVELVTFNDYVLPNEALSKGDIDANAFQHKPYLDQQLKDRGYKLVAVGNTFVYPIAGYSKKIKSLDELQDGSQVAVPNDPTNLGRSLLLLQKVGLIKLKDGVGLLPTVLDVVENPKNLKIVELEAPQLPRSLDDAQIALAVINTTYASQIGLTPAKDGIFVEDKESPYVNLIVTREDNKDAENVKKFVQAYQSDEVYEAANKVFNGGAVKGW

MetNI, sequence (P30750 whole entry): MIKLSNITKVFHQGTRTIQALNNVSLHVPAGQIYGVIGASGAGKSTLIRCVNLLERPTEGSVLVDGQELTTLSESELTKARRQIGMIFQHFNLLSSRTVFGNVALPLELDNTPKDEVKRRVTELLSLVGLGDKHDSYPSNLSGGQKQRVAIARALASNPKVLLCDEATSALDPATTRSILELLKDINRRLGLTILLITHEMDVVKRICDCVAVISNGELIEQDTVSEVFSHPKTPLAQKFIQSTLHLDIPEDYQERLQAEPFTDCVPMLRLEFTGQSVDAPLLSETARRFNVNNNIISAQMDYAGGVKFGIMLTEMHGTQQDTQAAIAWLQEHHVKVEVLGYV
MetNI, sequence (P31547 whole entry, further chain): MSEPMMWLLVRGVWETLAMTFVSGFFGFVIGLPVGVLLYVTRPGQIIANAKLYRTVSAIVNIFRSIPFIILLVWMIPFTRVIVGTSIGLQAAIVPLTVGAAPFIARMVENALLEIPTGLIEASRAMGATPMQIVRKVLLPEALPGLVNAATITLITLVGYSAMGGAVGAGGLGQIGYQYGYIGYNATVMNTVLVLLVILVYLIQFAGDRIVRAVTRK

Turning to MetNI (from UniProt P30750), the pKd (commonly −log10 of the Kd, conventionally taken in molar units) is 4.13.
